{"source": "paper PMC7055233", "key": {"[1]": {"target": "MapZ cytoplasmic domain (MapZ_(cyto)), wild type, residues 1-159 (S. pneumoniae (strain ATCC BAA-255/R6)) (UniProt Q8DR55)", "sequence (Q8DR55 other isoform, or with tags, fused parts or gaps)": "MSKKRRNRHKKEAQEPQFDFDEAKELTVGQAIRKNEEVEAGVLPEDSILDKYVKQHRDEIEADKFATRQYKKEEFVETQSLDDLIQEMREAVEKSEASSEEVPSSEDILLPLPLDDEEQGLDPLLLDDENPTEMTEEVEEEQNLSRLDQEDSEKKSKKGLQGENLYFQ", "assay": "NMR titration; 1H-15N BEST-TROSY of 15N MapZ_(cyto) (30 to 50 µM, one sample for each ratio) with unlabelled monomeric FtsZb (no GTP, no MgCl2), 5 °C; peak intensity decrease; apparent constants, 1:1 complex assumed"}, "[2]": {"target": "MapZ cytoplasmic domain (MapZ_(cyto)), wild type, residues 1-159 (S. pneumoniae (strain ATCC BAA-255/R6)) (UniProt Q8DR55)", "assay": "NMR titration; 1H-15N BEST-TROSY of 30 µM 15N MapZ_(cyto) with polymeric FtsZb at 1:1, 1:3, 1:4 and 1:6; 30 mM HEPES, 200 mM KCl, pH 7.5, 10 mM GTP and MgCl2, 5 °C; peak intensity decrease; apparent constants, 1:1 complex assumed"}}, "note": "pKd: −log10 of the molar value.", "data": [{"substance": "FtsZb, wild-type FtsZ from S. pneumoniae with an N-terminal glycine left after removal of GST by TEV protease (natural protein)", "values": [{"measurement": "pKd", "setting": "[1]", "result": "4.00 to 5.00"}, {"measurement": "pKd", "setting": "[2]", "result": "4.00 to 5.00"}]}]}
